Test results from US20150111829A1 (PHASEBIO PHARMACEUTICALS, published 2015).

T1: human Vasoactive Intestinal Peptide Receptor 2 (VPAC2) (human) (UniProt P41587)
T1 sequence (looked up): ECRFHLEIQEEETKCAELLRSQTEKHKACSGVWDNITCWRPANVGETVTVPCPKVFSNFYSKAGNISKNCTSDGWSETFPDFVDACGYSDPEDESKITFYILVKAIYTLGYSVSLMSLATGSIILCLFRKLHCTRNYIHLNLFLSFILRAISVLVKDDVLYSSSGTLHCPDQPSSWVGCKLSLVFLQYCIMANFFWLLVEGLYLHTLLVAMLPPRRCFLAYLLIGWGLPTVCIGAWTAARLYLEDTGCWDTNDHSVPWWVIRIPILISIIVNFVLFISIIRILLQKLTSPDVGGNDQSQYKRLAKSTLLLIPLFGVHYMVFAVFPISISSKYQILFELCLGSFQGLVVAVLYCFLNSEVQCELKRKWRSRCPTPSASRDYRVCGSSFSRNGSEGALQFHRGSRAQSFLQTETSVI

T2: human Vasoactive Intestinal Peptide Receptor 1 (VPAC1) (human) (UniProt P32241)
T2 sequence (looked up): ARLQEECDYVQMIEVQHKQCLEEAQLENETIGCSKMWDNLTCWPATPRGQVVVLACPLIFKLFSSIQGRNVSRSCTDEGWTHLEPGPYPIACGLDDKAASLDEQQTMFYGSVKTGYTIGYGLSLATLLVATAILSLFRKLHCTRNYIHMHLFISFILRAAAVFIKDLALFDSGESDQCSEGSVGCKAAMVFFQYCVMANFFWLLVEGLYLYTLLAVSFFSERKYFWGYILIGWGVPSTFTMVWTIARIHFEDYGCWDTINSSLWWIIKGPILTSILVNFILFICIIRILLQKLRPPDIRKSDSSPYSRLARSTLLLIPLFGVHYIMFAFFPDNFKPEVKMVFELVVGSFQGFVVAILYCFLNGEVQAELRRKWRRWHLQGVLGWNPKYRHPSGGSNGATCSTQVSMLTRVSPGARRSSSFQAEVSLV

T3: human Vasoactive Intestinal Peptide Receptor 1 (VPAC1) (human, UniProt P32241 31-457)
T3 sequence (looked up): T2 sequence (looked up)

B1: M-VIP-ELP1-120 fusion protein PB1046 (other)
chain: MHSDAVFTDNYTRLRKQMAVKKYLNSILNVPGVGVPGVGVPGGGVPGAGVPGVGVPGVGVPGVGVPGGGVPGAGVPGGGVPGVGVPGVGVPGGGVPGAGVPGVGVPGVGVPGVGVPGGGVPGAGVPGGGVPGVGVPGVGVPGGGVPGAGVPGVGVPGVGVPGVGVPGGGVPGAGVPGGGVPGVGVPGVGVPGGGVPGAGVPGVGVPGVGVPGVGVPGGGVPGAGVPGGGVPGVGVPGVGVPGGGVPGAGVPGVGVPGVGVPGVGVPGGGVPGAGVPGGGVPGVGVPGVGVPGGGVPGAGVPGVGVPGVGVPGVGVPGGGVPGAGVPGGGVPGVGVPGVGVPGGGVPGAGVPGVGVPGVGVPGVGVPGGGVPGAGVPGGGVPGVGVPGVGVPGGGVPGAGVPGVGVPGVGVPGVGVPGGGVPGAGVPGGGVPGVGVPGVGVPGGGVPGAGVPGVGVPGVGVPGVGVPGGGVPGAGVPGGGVPGVGVPGVGVPGGGVPGAGVPGVGVPGVGVPGVGVPGGGVPGAGVPGGGVPGVGVPGVGVPGGGVPGAGVPGVGVPGVGVPGVGVPGGGVPGAGVPGGGVPGVGVPGVGVPGGGVPGAGVPGVGVPGVGVPGVGVPGGGVPGAGVPGGGVPGWP

How the values were obtained:
Experiment in all cases: cell-based or functional assay
[1] = target: T1, human Vasoactive Intestinal Peptide Receptor 2 (VPAC2) (human)
[2] = target: T2, human Vasoactive Intestinal Peptide Receptor 1 (VPAC1) (human)
[3] = target: T3, human Vasoactive Intestinal Peptide …

Binder	cAMP assay in CHO cells expressing VPAC2, fold less active than native VIP (fold less active than native VIP) [1]	cAMP assay in CHO cells expressing VPAC1, fold less active than native VIP (fold less active than native VIP) [2]	cAMP assay in CHO cells expressing VPAC1, fold less active than native VIP [3]
HSDAVFTDNYTRLRKQMAVKKYLNSILN (peptide, part only; not given: ELP1-120 polymer, part only) [VIP-ELP1-120 fusion peptide PB1120]	1.5	1.4	
B1			~11 fold less active than native VIP
